B1: Homeobox protein SIX3 (Mus musculus), Q62233 (parent)
chain: MVFRSPLDLYSSHFLLPNFADSHHCSLLLASSGGGSGASGGGGGAGGGGGGNRAGGGGAGGAGGGSGGGGSRAPPEELSMFQLPTLNFSPEQVASVCETLEETGDIERLGRFLWSLPVAPGACEAINKHESILRARAVVAFHTGNFRDLYHILENHKFTKESHGKLQAMWLEAHYQEAEKLRGRPLGPVDKYRVRKKFPLPRTIWDGEQKTHCFKERTRSLLREWYLQDPYPNPSKKRELAQATGLTPTQVGNWFKNRRQRDRAAAAKNRLQHQAIGPSGMRSLAEPGCPTHGSAESPSTAASPTTSVSSLTERADTGTSILSVTSSDSECDV

Variants of: B1
Conditions: with tle4_mouse Tle4, Q62441
Chain of tle4_mouse Tle4, Q62441 (Q62441 whole entry): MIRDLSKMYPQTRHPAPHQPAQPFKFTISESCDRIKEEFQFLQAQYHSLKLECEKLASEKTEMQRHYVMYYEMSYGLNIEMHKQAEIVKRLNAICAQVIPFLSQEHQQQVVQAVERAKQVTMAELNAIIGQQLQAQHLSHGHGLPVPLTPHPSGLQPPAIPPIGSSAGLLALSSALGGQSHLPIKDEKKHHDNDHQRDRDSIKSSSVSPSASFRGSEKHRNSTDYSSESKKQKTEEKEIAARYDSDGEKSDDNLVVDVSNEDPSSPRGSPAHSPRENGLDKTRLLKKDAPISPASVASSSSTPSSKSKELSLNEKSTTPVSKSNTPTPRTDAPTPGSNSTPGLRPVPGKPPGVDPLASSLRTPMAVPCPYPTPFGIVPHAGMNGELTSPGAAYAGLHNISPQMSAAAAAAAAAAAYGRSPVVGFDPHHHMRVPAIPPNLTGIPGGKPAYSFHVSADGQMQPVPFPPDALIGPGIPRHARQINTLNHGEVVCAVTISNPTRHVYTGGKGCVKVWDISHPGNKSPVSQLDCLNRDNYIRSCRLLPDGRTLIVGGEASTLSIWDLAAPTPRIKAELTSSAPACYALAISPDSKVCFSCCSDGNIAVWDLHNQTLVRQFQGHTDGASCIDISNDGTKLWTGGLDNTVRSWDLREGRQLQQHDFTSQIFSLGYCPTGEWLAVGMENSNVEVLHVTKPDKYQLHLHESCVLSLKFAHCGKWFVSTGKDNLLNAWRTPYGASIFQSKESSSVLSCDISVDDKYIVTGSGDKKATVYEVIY

Variant | effect of a mutation on the interaction
F88E | decreasing interaction

From IntAct's records for PubMed 12050133
